Numbering of substitutions follows the chain as printed. In names and notes the source's numbering stands.
B1: CboDyP (Actinotalea bogoriensis 69B4 = DSM 16987) (protein)
chain: VGAGAGARWGSRAPEAPQPARAAGPGDVVVPCHGEHQAGIVTPPPSFIALVALDLASTSDRASVERLLRVWTVDIERLTTGRPGLADSEPELALVPAALTVTVGFGPGLLTAAGLRHRAPAWLHPLPPFGIDRLDPAWCDGDVVLQVCADDRTTLAHAVRVLTKEAQGLASVRWVQRGFRRSPGISEPDGTSMRNLMGQVEGTANLDPRTDPDLLWHRDGEPGWLTGGTSMVVRRIAMNLDTWDELSRGAREATIGRTLRTGAPLTGRAEHDEPDLEALDDHGRPVIDLEAHIRRARPTQREETFLRRAYNYDEAPPPGRASDSGLLFVTYQRDVDAQFTPVQRRLDAADLLNEWTFPVGSAVFAVPGGWSAGEYVGQRLLEG
notes: codon-optimized synthetic gene, recombinant in E. coli NEB 10-beta; N-terminal His-SUMO fusion kept for kinetics, SUMO cleaved for crystals; Tat signal predicted, first 22 residues not visible in crystal; heme-containing; motif GXXEG
B2: CboDyP (Actinotalea bogoriensis 69B4 = DSM 16987; E205D) (protein)
chain: B1 chain with E201D
notes: as for B1

Substrate: Nc1c(S(=O)(=O)O)cc(Nc2cccc(S(=O)(=O)CCOS(=O)(=O)O)c2)c2c1C(=O)c1ccccc1C2=O
Assay: purified protein
Format: biochemical, Actinotalea bogoriensis
Settings: 100 µM H2O2, 100 mM citrate pH 5, 50 nM enzyme, His-SUMO fusion

| Protein | Km | kcat |
| --- | --- | --- |
| B1 | 17 µM | 0.22 s⁻¹ |
| B2 | 36 µM | 2.88 s⁻¹ |

— PMC6479361, “Characterization of a New DyP-Peroxidase from the Alkaliphilic Cellulomonad, Cellulomonas bogoriensis” (Molecules, 2019)
